This passage reports IC50 results from the Immune Epitope Database (IEDB).

Assay in all cases: IEDB peptide-MHC binding, purified MHC/competitive/fluorescence; ≥ and ≤ were set here for values at or beyond the usual limits of such assays
Common to all, as to conditions: source organism: Plasmodium falciparum

In assay [1] the target is HLA-A*03:01.
Assay [2] deals with HLA-B*44:02.
Assay [3] concerns the target HLA-A*24:02.
Assay [4] has as its target HLA-B*07:02.
Assay [5] addresses HLA-A*02:01.
Assay [6] addresses HLA-A*01:01.

For KIFTFIENK, the concentration for half-maximal inhibition (IC50) in assay [1] is 0.467 µM.

Regarding KEKFYKNNLY, the IC50 in assay [2] is at least 919 µM.

As for YYRSSRGECI, the half-maximal inhibitory concentration (IC50) in assay [3] turned out to be 0.175 µM.

EEKDDIKNG registered an IC50 in assay [2] of at least 100 µM.

In assay [1], DLMNRTFKK yielded a half-inhibitory concentration (IC50) of at least 100 µM.

In assay [4], RPNDCESVL had an IC50 of 0.377 µM. In other words, the sub-micromolar range.

NLFSSIEIV gave a concentration for half-maximal inhibition (IC50) in assay [5] of 1.55 µM.

NEIDKLTFSL had a half-maximal inhibitory concentration (IC50) in assay [2] of at least 332 µM.

In assay [4], CPRKNLQNA displayed an IC50 of 0.484 µM.

Sequence VLNGNDNTI registered a concentration for half-maximal inhibition (IC50) in assay [5] of 7.31 µM.

In assay [1], HIYVQKKVK returned an IC50 of 0.897 µM.

LICGVSPYK came in with an IC50 in assay [1] of 0.419 µM.

Sequence LQKHGFHTM yielded a half-inhibitory concentration (IC50) in assay [4] of at least 100 µM.

Regarding LPIKSTEEEK, in assay [4], the IC50 is at least 100 µM.

In turn, NKNDDSYRY registered a concentration for half-maximal inhibition (IC50) in assay [6] of 6.68 µM. This lies in the single-digit micromolar range.

For YIYIDTIKFI, the concentration for half-maximal inhibition (IC50) in assay [5] worked out at 53.1 µM.

The sequence ITSDHLRQM had a concentration for half-maximal inhibition (IC50) in assay [4] of at least 183 µM.

Regarding HLNNIFHHL, in assay [5], the IC50 is 0.225 µM.

GYSTKAENKI returned an IC50 in assay [3] of 1.84 µM. That is a single-digit micromolar value.

SVLNGNDNTI displayed a concentration for half-maximal inhibition (IC50) in assay [5] of at least 640 µM.

SYNSIYHKS: in assay [3], the half-maximal inhibitory concentration (IC50) turned out to be 57.7 µM.

For the sequence NDVPIKMEYF, the IC50 in assay [2] is at least 100 µM.

For the sequence NTNGIRYHY, the IC50 in assay [6] worked out at 4.38 µM.

In assay [5], YIFFNNENSI came in with a 50% inhibitory concentration (IC50) of 2.83 µM.

ILDMSNEYSL: the half-inhibitory concentration (IC50) in assay [5] came to 6.87 µM.

In assay [3], QYLKDGGFAF gave an IC50 of 0.0419 µM.

In turn, HREHPKEYEY yielded a concentration for half-maximal inhibition (IC50) in assay [6] of 11.1 µM.

In the case of RPYISKNDL, in assay [4], the 50% inhibitory concentration (IC50) came to 0.244 µM. This counts as sub-micromolar.

As to KLGVQYFFL, the IC50 in assay [5] turned out to be 0.805 µM.

For the sequence KSAFLPTGAF, the IC50 in assay [4] is at least 100 µM.

Consider KMMDEYNTKK, for which the concentration for half-maximal inhibition (IC50) in assay [5] is at least 511 µM; in assay [1], 8.48 µM.

As to DSCVPNTNEY, in assay [6], the IC50 was at least 100 µM.

With YIYNQIIWKI, the IC50 in assay [5] is 1.95 µM.

FTYDSEEYY displayed an IC50 in assay [6] of 0.136 µM.

For HTKIINDKTK, in assay [1], the 50% inhibitory concentration (IC50) is at least 73 µM.

In the case of NYKLGVQYFF, in assay [3], the IC50 came to 26.3 µM.

With AYLNKYVYTI, the 50% inhibitory concentration (IC50) in assay [3] was determined as 0.127 µM.

For YMGNPWTEYM, the IC50 in assay [5] turned out to be 21.4 µM.

For TLNDEYIVSY, the results for the half-maximal inhibitory concentration (IC50) in assay [6] and in assay [1] were at least 213 µM and at least 304 µM, respectively.

As to VLLLSAFEFT, the IC50 in assay [5] was at least 100 µM.

On to LTIIYIHLF, for which the half-inhibitory concentration (IC50) is 69.5 µM in assay [3] and at least 100 µM in assay [6].

In assay [4], KPEKYGNTTA yielded an IC50 of at least 836 µM.

In the case of YLNKYVYTI, the IC50 came to 0.135 µM in assay [3] and 0.342 µM in assay [5].

For the sequence VQYFFLRPYI, the IC50 in assay [5] and in assay [2] was at least 100 µM each time.

For the sequence YVGDNINNV, in assay [5], the IC50 was 1.82 µM.

The sequence SYRYDISEEI registered a half-maximal inhibitory concentration (IC50) in assay [3] of 0.363 µM.

With LNDEYIVSY, the IC50 in assay [6] worked out at 28.1 µM.

For CVCTYNYYKK, in assay [1], the IC50 was 14.4 µM.

Consider GYNWGNYNTE, for which, in assay [3], the concentration for half-maximal inhibition (IC50) was at least 100 µM.

With KRASHTTPV, the IC50 in assay [4] and in assay [5] was at least 100 µM throughout.

Consider LEFVCSNRDF, for which the IC50 in assay [2] came out at 7.46 µM.

On to FVCSNRDFLK, for which, in assay [1], the half-inhibitory concentration (IC50) is at least 100 µM.

PYISKYGNKL showed a half-inhibitory concentration (IC50) in assay [3] of 0.179 µM.

IFHHLIYVL had an IC50 in assay [3] of 9.59 µM.

For RLSHTDIHK, in assay [1], the IC50 was 1.74 µM.

Turning to IKKKLILTII, the half-inhibitory concentration (IC50) in assay [4] amounted to 44.1 µM. That is a double-digit micromolar value.

FISDDKDSL gave an IC50 in assay [5] of at least 336 µM.

Regarding LPSAKNNCEY, in assay [4], the IC50 is at least 100 µM.

For the sequence STEEEKDDIK, the IC50 in assay [6] was found to be 6.83 µM. This counts as single-digit micromolar.

For EELQITQWI, the IC50 in assay [2] was found to be 19.6 µM.

IYIHLFILN gave a half-maximal inhibitory concentration (IC50) in assay [3] of at least 142 µM.

The sequence KDLSDMTNI gave an IC50 in assay [2] of at least 100 µM.

In the case of DVSTLNDEY, the IC50 in assay [6] amounted to 52.2 µM.

Take MPKAVIGSSP: the IC50 in assay [4] was at least 293 µM.

In turn, SPLNLQENEM came in with an IC50 in assay [4] of 22.4 µM.

RQMLYNTFYS: the IC50 in assay [5] is at least 319 µM.

Regarding KEIDNDKENI, in assay [2], the IC50 is at least 100 µM.

EENYRCTQDI registered an IC50 in assay [2] of at least 674 µM.

As for TSSLIKQNKY, in assay [6], the IC50 was determined as 37.1 µM.

Turning to NSIYHKSSTY, the half-maximal inhibitory concentration (IC50) in assay [6] is at least 100 µM; in assay [1], at least 101 µM.

In turn, HPYDINNKND yielded an IC50 in assay [4] of at least 100 µM.

Take IPFHKKFISF: in assay [4], the concentration for half-maximal inhibition (IC50) is 21.9 µM. This counts as double-digit micromolar.

Take FITSDHLRQM: the IC50 in assay [4] is at least 100 µM.

In assay [3], EYKDEYADI showed a half-inhibitory concentration (IC50) of 2.1 µM. This counts as single-digit micromolar.

Turning to SMIKSAFLPT, the half-maximal inhibitory concentration (IC50) in assay [5] was 12.5 µM.

IYKRELYNI displayed an IC50 in assay [3] of 0.0868 µM. This counts as double-digit nanomolar.

In assay [1], FISDDKDSLK came in with an IC50 of at least 697 µM.

For HLDFVIIPHY, the IC50 in assay [6] was at least 118 µM.

In assay [5], KINETYDKV showed an IC50 of 10.1 µM.

Consider NPEDRNSNTL, for which the IC50 in assay [4] was 2.7 µM.

SIEIVERSNY gave an IC50 in assay [6] of 12.1 µM.

Sequence NEDYKNVDY showed an IC50 in assay [6] of 8.92 µM.

For the sequence DFVIIPHYTF, the half-inhibitory concentration (IC50) in assay [3] stood at 0.289 µM. This counts as sub-micromolar.

Regarding YIDTIKFIHK, in assay [6], the IC50 is 1.51 µM.

In assay [4], TPGPLDNTSE returned a half-maximal inhibitory concentration (IC50) of at least 100 µM.

On to FNRIEYHTKI, for which, in assay [4], the IC50 is at least 100 µM.

Regarding STDPHTNSNN, the 50% inhibitory concentration (IC50) in assay [6] is at least 100 µM.

The term IC50 denotes the concentration needed to halve the response being measured. A low value points to higher potency.
